Experimental data: paper PMC7383920, “Metabolomics analysis and metabolite‐agronomic trait associations using kernels of wheat (Triticum aestivum) recombinant inbred lines” (The Plant Journal, 2020)
Positions count from the first letter of the chain named.

Tests used:
[1] = biological target: T1, UGT88C13 (TraesCS2B01G012000) (Triticum aestivum, UniProt A0A3B6BZ82); assay: LC-MS glucosyltransferase assay; assay type: biochemical; settings: UDP-glucose as donor, Tris-HCl pH 7.5, 10 mM MgCl2, 37 °C; mainly 7-O-glucosylation
T1 construct: gene LOC123043080; also cloned in pGEX-6p-1 (GST)
T1 sequence (A0A3B6BZ82 1-489): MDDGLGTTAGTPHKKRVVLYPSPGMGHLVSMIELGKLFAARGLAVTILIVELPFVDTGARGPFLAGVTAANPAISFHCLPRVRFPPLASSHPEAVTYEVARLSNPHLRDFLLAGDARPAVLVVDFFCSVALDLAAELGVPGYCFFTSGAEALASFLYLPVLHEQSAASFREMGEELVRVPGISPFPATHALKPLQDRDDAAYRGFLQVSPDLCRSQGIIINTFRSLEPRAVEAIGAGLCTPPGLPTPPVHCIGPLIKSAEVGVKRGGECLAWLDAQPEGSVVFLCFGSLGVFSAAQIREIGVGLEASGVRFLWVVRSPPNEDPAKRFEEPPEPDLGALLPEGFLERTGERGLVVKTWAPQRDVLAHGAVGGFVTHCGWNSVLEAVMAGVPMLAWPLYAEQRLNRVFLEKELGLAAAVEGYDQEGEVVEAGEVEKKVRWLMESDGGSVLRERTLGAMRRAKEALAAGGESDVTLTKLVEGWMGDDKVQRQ

[2] = biological target: T2, UGT88C14 (KN9204 allele of TraesCS2B01G012000) (Triticum aestivum, UniProt Z9F0T2E170); assay: LC-MS glucosyltransferase assay; assay type: biochemical; settings: UDP-glucose as donor, Tris-HCl pH 7.5, 10 mM MgCl2, 37 °C; mainly 7-O-glucosylation
T2 construct: full-length natural allele from KN9204, StrepII-tagged, expressed in and purified from N. benthamiana
T2 sequence (Z9F0T2E170 1-489): T1 sequence (A0A3B6BZ82 1-489) with S90P, V363L, A455T

purified protein [3] = substrate: O=c1c(O)c(-c2ccc(O)cc2)oc2cc(O)cc(O)c12; assay: purified protein; settings: UDP-glucose as donor, Tris-HCl pH 7.5, 10 mM MgCl2, 37 °C, mainly 7-O-glucosylation
purified protein [4] = substrate: O=c1cc(-c2ccc(O)cc2)oc2cc(O)cc(O)c12; assay: purified protein; settings: UDP-glucose as donor, Tris-HCl pH 7.5, 10 mM MgCl2, 37 °C, mainly 7-O-glucosylation
[5] = substrate: O=c1cc(-c2ccc(O)c(O)c2)oc2cc(O)cc(O)c12; assay: LC-MS glucosyltransferase assay; assay type: biochemical, Triticum aestivum; settings: UDP-glucose as donor, Tris-HCl pH 7.5, 10 mM MgCl2, 37 °C, mainly 7-O-glucosylation

Molecule: O=c1c(O)c(-c2ccc(O)c(O)c2)oc2cc(O)cc(O)c12 [quercetin]
- Km [1]: > 1000 µM

Molecule: O=c1cc(-c2ccc(O)cc2)oc2cc(O)cc(O)c12 [apigenin]
- Km [2]: 21.8 ± 9.15 µM

B1: UGT88C13 (TraesCS2B01G012000) (Triticum aestivum) (protein)
chain: T1 sequence (A0A3B6BZ82 1-489)
notes: also cloned in pGEX-6p-1 (GST)
- Km (purified protein [3]): 20.33 ± 5.75 µM
- Km (purified protein [4]): 19.47 ± 6.76 µM
- Km [5]: 22.13 ± 6.54 µM
